Data taken from publication PMC4730846 (Science Advances, 2015).

Molecular target: GroEL (Escherichia coli, UniProt P0A6F5 2-548)
Assay: proteinase K protection assay

Chain of GroEL (P0A6F5 2-548): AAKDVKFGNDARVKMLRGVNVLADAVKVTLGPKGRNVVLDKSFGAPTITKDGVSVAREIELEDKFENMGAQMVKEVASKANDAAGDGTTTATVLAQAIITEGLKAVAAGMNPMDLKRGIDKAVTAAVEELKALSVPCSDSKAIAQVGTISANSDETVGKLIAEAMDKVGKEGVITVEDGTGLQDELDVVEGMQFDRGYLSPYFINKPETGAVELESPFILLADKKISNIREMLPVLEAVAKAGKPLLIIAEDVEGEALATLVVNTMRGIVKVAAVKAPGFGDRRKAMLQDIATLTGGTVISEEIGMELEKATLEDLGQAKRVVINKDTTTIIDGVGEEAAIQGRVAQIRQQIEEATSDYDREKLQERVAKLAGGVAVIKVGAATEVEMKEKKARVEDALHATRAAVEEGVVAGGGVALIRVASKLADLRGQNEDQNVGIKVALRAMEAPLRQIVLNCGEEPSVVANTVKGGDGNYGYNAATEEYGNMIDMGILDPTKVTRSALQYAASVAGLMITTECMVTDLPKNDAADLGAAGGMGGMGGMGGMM

B1: GroES (natural protein)
chain: MNIRPLHDRVIVKRKEVETKSAGGIVLTGSAAAKSTRGEVLAVGNGRILENGEVKPLDVKVGDIVIFNDGYGVKSEKIDNEEVLIMSESDILAIVEA
binding result: binds
